Results as given in paper PMC11236705 (2024).

What was measured:
Assay in all cases: SPR
[1] = target: GGC_5
[2] = target: GGC_6
[3] = target: GGC_13

B1: ghrelin receptor ICL3-specific antibody (antibody, V domains shown)
VH: EVQLQQSGAELVRPGASVKLSCKASGYTFTDYEMHWVKQTPVHGLEWIGAIDPETGGTVYNQKFKGKATLTADISSTTAYMELRSLTSEDSAVYFCISEDIDESKDYWGQGTTLTVSS
VL: DIVMTQSPSSLAVSAGEKVTLSCKSSQSLFNSRTRKNYLAWYQQKPGLSPTLLIYWASTRKSGVPDRFTGSGSGTDFTLTITSVQAEDLAVYYCKQSYYLRTFGGGTKLEIK
Kd [1]: 415 nM | Kd [2]: 789 nM | Kd [3]: 406 nM
